The source of these data is the DeepSol protein solubility set.

The nature of the series: soluble on expression in E. coli; label from the status in PepcDB or PDB records.
Turning to “MNHMKKNILFDGLRSVARIGETAFVAARAGIKYATEKPSNAKLMRETFESLGSTYIKLGQFIASTPSLFPREYVEEFQGCLDQTPTLPFSYIQEVLAEEFEGRDLNQIFASIDETPLASASIAQVHAARLTTGEDVVIKVQKPGVETILYTDLNVVHWATKMLEKAIPKVKFASLSEIVEEIKIRMVREVDFIEEAQNLDDFVEYLKITNNQAATAPKVYHQFSTRRILTMERLYGVSLTDFDIVKKFAKDPSQVLITAMNTWFGSLMLCKSFHADLHAGNLMLLEDGRIGFIDFGIVGQLNPQVWTACLAFMDALQKTDYTAMAENMLKMGMTKTQIDTQVLAQDLERLFSGVLLADPQEILASKPSDLNDIMLDMVAVGERHGIKFPRDFALLFKQMLYFDRFMRVLAPYTDIYADQRLKMVQTIEPQSLLKHLEHHHHHH”, the “soluble on expression in E. coli” value is on record as “soluble”.
On to “MNHVSHTGSYYAASANDKVQRSKLTEDITADICVVGSGFTGLSSALHLAEKGFKVVVVEGSRIGFGASGRNGGQLVNSYSRDMDFIERNYGKHVSTEMGQMAFEGSRIIKRLINDYDIKCDLRPGGVFAACNSKQLDEMAEKQKLWAKHGYHETELLSASDIQNHVGTERYVGGLLDKAGGHIHPLNLALGEAAAFEKLGGIIYEDSIVVDIVHGKKAVIKTDSGSVTADFVVVAGNAYLEGLLPKQQKQSMPCGTQIITTEVLPEAMQKQLLPTDVCVEDCNYLLDYFRLSGDGRLIYGGGTTYGAREPSKIESIIIPKMLKTFPQLKDVKIDYAWTGNFLLTLMRLPQFGRINDNVYYAQGYSGHGVTSTHLAGKVIADAITGQAERFDVFAGLPQYPFPGGRLFKTPYTAMGAWYYQMRDKLGILEHHHHHH”, for which the “soluble on expression in E. coli” value is “soluble”.
Turning to “MNIAAVAGSPTGDMIEIGQHLRVRHFCYQTAKQRGDIGKIIRIAFAEVKFRCDSQIPLQRQTATNVADMFMHAKNFLHYNDHWQWAIALLWSGMVSRHVIPL”, the “soluble on expression in E. coli” value was “not soluble”.
As for “MNIAVSKPPLTIRLCGPRGFCAGVDRAIQIVVLALKAYGAPVYVRHEIVHNRYVVEGLEAKGAIFVEELHEIPAEHREQPVVFSAHGVPKSVPEDAQARNLFYLDATCPLVSKVHKQAMRHQRLGRHVVLIGHAGHPEVIGTMGQLPEGTVSLVETVEDAGVYEPVDRENLGFVTQTTLSVDDTAGVIARLQERFPAIQAPAADSICYATTNRQDAVKQAAPGCDLFIVVGAPNSSNSKRLVEVALRAGAKHSVLVQRASEIDWNEIGDIRTVGLSAGASAPEVIVDEIIEAFKARFDTTLDLAVTVEETEHFLVNRELRSIELTTDDMAFVNGNASNALPPKATAGILEHHHHHH”, the “soluble on expression in E. coli” value is reported as “not soluble”.
The value for “MNIMEIEKTNRMNALFEFYAALLTDKQMNYIELYYADDYSLAEIADEFGVSRQAVYDNIKRTEKILETYEMKLHMYSDYVVRSEIFDDMIAHYPHDEYLQEKISILTSIDNRE” was “soluble”.
On to “MNINKSKKRDSAVDIDNHDPFSVLLMGVDERDGDKGRADSLIYMTVNPKTKTTEMVSIPRDTYTEIIGKGKMDKINHSYAFGGVQMTVDTVENFLDVPVDYFIKVNMESFKDVVDTLGGITVNSTFAFNYDGYSFGKGEITLNGKEALAYTRMRKEDPNGDFGRQNRQRQVIEGIINKGANISSITKFGDMFKVIENNVKTNLTFDDMWDIQSGYKEARSKVIQHELKGDGTKINGIYYYKADESSLSDITAELKESLNKLEHHHHHH”, for which the “soluble on expression in E. coli” value is on record as “soluble”.
“MNIRDYIRENEARFLEDLFALIRIPSVSAKSEHKPDMQRCAEHWRDHLLQVGAQKAEVFQTPGNPVVYAERIMDPKAKTILVYAHYDVMPPEPLELWKSEPFEPVIRDGHIWARGADDDKGQGMIQVKGFETALALGLVQCNVKFLFEGEEEIGSTNLEAFCRAHKEMLSADVIIVSDTSMVSAETPSLTTGLRGLAYWEMEVTGPNRDLHSGHFGGAVANPINELCKLIAGIVDENGRITIPHFYDDVVPLSDEERQMIAQVPFSEEKYCQALDIDTVFGEAGYSTLERNSCRPSFDVCGIWGGYTGEGAKTVLPSKAYAKVSSRLVANQDHEKISQMFIDYIRSVAPKHIKVKVTPLHGGEAYLCPIDLPAYKAAEEACTIAFGKRPLAVRRGGSIPIIATFEKVLGLKTVLMGFGLESNAIHSPNENMPLDIFRKGIESVAEFYRIYK”: the “soluble on expression in E. coli” value is “not soluble”.
Turning to “MNIYKLIGRNLEITDAIRDYVEKKLARLDRYQDGELMAKVVLSLAGSPHVEKKARAEIQVDLPGGLVRVEEEDADLYAAIDRAVDRLETQVKRFRERRYVGKRHSYQGPPPPEVRDLEALRKPEEEEGPRIVRVKRFEMKPMDPEEAAFQMEALGHSFFVFRNAKTDEINVIYRRKDGNYGLIEPA”, the “soluble on expression in E. coli” value is “soluble”.
The value for “MNKAKPKVVWASVYEGSAYIAPKDSYVDNMIKMAGGINACASIDSNEGRVSIEQLHEVAKDADIFVYSSSSDYAPNLDSIKSSAPVLADLDVVKNGNLWVFAPDYYQSVDKTDELIVDLVEMFHPGTTGEKIKHYINYDKLEHHHHHH” was “soluble”; that for “MNKAPHETRVVVGMSGGVDSSVAALLLKEQGYDVIGIFMKNWDDTDENGVCTATEDYEDVVRVCNQIGIPYYAVNFEKQYWDKVFTYFLNEYKAGRTPNPDVMCNKEIKFKAFLEHAMSIGADYIATGHYARVEFRDGEYKMLRGADPNKDQTYFLNQLGQAQLSKVMFPIGHLQKADVRRIAKEAGLATAGKKDSTGICFIGERDFKEFLSHYLPAQPGVMKTLDGEVKGRHDGVMYYTIGQRHGLGIGGSGEPWFVVGKDVRENVLYVAQGFENEYLYSTSLKAVDVNWVSDRKPEAPFRCTAKFRYRQPDVGVTVHPLADGGVEVVFDAPARAVTPGQAVVFYNGEECLGGGTIDEVFRNGEKLWYVG” was “not soluble”; that for “MNKDNSPSESLVNSSASEDKTVKTSMSANNPSINDSSLPERLPAMCGCDSQNREESANSGVQLSDHANESLSKQADDVIYEGGLEDKDSVFRAIIEDDDACEVLDDGIDNCEVEIPVAIECHLCNEMMNLCLRRTRYRGQAREYPAYRCNRKGCQTFRSIRKVFGNCMSDVDNSGDATTRTMIYHPPHKVRKTSPGEFSDDDSKEFVVQRVYIPKIDNRNKDQSVKSLSVTDRMRKANQDRAIVFSEFADQLRRDIVANKRVRIKKHVEEDQQGTLFYISKELNPQEVIELQDVIIKTLISMRKIPPPMTMDDLPLFANCPYSKKAVDAGEFDMSETEERPRPKLPKTIYQNTRTHSDSLTERSRHFTYDELKHSMEANAEGPSTCRIGISRSERNSESLQWIGLKTYEDSTDGFAKSVNSEGERQQGINGQIDDEVFEDESRFKPVASMQDVMRTLSTPSTLRPPVSPLMKSFSSMDSSNFKNPINAHPPMFFSDPHFLINNNQFNSPTPFYALNSYFPSFPMDSSQVYQNATDEHFTPSGASEVVCTEQTPGHHFTYIHPDSGVRLTDPSAFLTSFVPSPITKVPPINFNDETSRSRSASAPSTSVYNTGEFERSHKKYENEEDEKLMDNQNFSDEQPKE” was “not soluble”.
Regarding “MNKDVSLGQPIVRYEDGKLFNTTDQYVTEFPLTIMVNGEEFATVICSPTNLEELVIGFLASEGAILKRDELKSVLIDDSKGFAHVELNKDLGDRFQYSTKRMIASCCGKSREFYFQNDAAIAKTSMSKITLTPIQIINMMTRLQSASHIYQETGGLHNAAISDGLTFFVHRQDIGRHNALDKLYGFCIQRHITVRDKVLIFSGRISSEILIKAAKIGVGVILSKSAPTTLAVTLANDLNITAVGFIRNGGFNIYSHPERIIDSEQ”, the “soluble on expression in E. coli” value is reported as “not soluble”.
As to “MNKKSSSMVNMPAPREPINQKIDTNNALVLNHNAIYEQRLAEITQSNTCDKAIVTVNPYGTAPLSLYLGVWMDEAAALEINVVDSEATTEEVRYQYDVHPGANLIPVCGMVSAVNNQITLRLASQIVGQYTVMTDALPPTDSANVSLGFPIISVSCPAQQASLMEEGLYFSTYFDRYNLAFDHNGIVRWYVSQEIPSYNFVRMDNGHFLATSQGINHCLNMYEFDIMGRVYTVYLLDNEFHHSILPIENNLAIAPSEYSNGRPDGYSTGKDGVSIINLSTGLEVAYYDMLYVMDYSRSPRPSGSAPGQDVSMDDWLHINQSYINEPNNLLICSGRHQSAIFGVNVDSGELRFIMANHEDWSDEFKQYLLTPVDDDGVPLYDLTSPGGIDAADKNFWTWGQHNIVEIPNDEPGILEFMVFDNGNYRSREDAKSLLPLDNFSRVVQFKINLNTMTVTRPYEYGKTEVGNRGYSSFVSAKHLLTNGHLVIHFGATTVDEFEHTITAQPGSSDLVDPDEGQQALGRLVLQEINKETKEVLFEAMVTSGYFKNEETNGTNYRYDISAFRVYKMPLFALEHHHHHH”, the “soluble on expression in E. coli” value is “soluble”.
For “MNKLRKTIGRLEVKCKNADAGCIVTCPLAHRKGHQDSCPFELTACPNEGCTSQVPRGTLAEHRQHCQQGSQQRCPLGCGATLDPAERARHNCYRELHNAWSVRQERRRPLLLSLLRRVRWLDQATSVVRRELAELSNFLEEDTALLEGAPQEEAEAAPEGNVGAEVVGEPRANIPCK”, the “soluble on expression in E. coli” value is “soluble”.
On to “MNKLTIIVTYYNAEEYITGCLESIKQQRTQDFNLIIVNDGSTDQSKKLMDEAIKDYDKNIRFIDLDENSGHAHARNIALEEVETPYFMFLDADDELASYAITFYLEKFNNTDGLIAPIHSFTTQRPQFVDLDRVRVEYFNAKENINSFLRKQSACNIIFRTAIVRAHHIRFNENLNTYVDWSFVLEYMKYVNKFVRIFNFPFYFRGEVYDPFETLTLSEQNFDILFKDYVNSFYDAIKRATNPKVREFIVTKMGNKIANEFEPTRYDINERYQTHKDTLVELSKFLHVHLVKNQKLINKIETILLMNNETDKAFKVNQFRKTLRHVKNIVLRRKNKERSLYDLTDKEDNVKPKTIVFESFGGKNYSDSPKYIYEYMQKYYPNYRYIWSFKNPDKNVVPGSAEKVKRNSAEYYQAYSEASHWVSNARTPLYLNKKENQTYIQTWHGTPLKRLANDMKVVRMPGTTTPKYKRNFNRETSRWDYLISPNRYSTEIFRSAFWMDEERILEIGYPRNDVLVNRANDQEYLDEIRTHLNLPSDKKVIMYAPTWRDDEFVSKGKYLFELKIDLDNLYKELGDDYVILLRMHYLISNALDLSGYENFAIDVSNYNDVSELFLISDCLITDYSSVMFDYGILKRPQFFFAYDIDKYDKGLRGFYMNYMEDLPGPIYTEPYGLAKELKNLDKVQQQYQEKIDAFYDRFCSVDNGKASQYIGDLIHKDIKEQLEHHHHHH”, for which the “soluble on expression in E. coli” value is on record as “soluble”.
The value for “MNKPNLENMNPNFPSSPPIDIISPFFPNILVLNSSSSIANAGVTMTAFTAASPNPITKLMLNLFREGNIESESARKPAIVVNAAPSNAFPVSEIASSAASSGDLPLFLSS” was “soluble”.
As for “MNKRRVKPEHVRREEIVNAAYEVIFEVGLSNTTMAQIAKKAQLSVGIVSHYFGDKQGLINACMLEMLNVLRRKTAQYKAEVQDSHPESMIKAIIDSNFDISQVNQRAMRIWLDFWSASMHMPELSRLQRINDQRLYSNLKFHFLELMPKDQASIAARGLAALIDGLWLRGSLSQDTTFDSTLARSIAYDYVDTQLKLVKQIRQERQNE”, the “soluble on expression in E. coli” value is on record as “not soluble”.
The value for “MNKYDIAVIGGGMVGAAVAVGFAKQGRSVVVVEGAEPKAFDAAQALDVRVSAISHQSVKLLESLDAWSAIEAMRVCPYRRLETWEHPECRTRFHSDELSLDQLGYIVENRLIQLGLWQAFAQFDNLTVKCPERLKDIDFNDGNRITLESGEQFDANWIIGADGANSKVRQLAGIGVTAWDYRQHCMLINVKTELPQQDITWQQFTPSGPRSFLPLCSLTEDGQEVGQGSLVWYDSPKRIKQLCAMTKPQLREEIVRHFPKELGDIEVLQFGSFPLTRRHAQSYSHRGCVLVGDSAHTINPLAGQGVNLGFKDVDVLLSVTQGQDELTDALLAKYERTRRPDNLLMQTGMDFFYKGFSNDLGPLKFARNAALKLAENSGPIKAQVLKYALGMLEHHHHHH” was “not soluble”.
